For 2 substances, Kd results are on record in paper PMC3202338.

In test [1] the target is Bodipy conjugated IS_helix (Ser-36 mutated to cysteine). The test can be described thus: fluorescence polarisation. In general terms: In fluorescence polarisation assays a small probe gives low polarisation when free and higher when bound to something large.
Another test has as its target CFP-PAcKer [GFP: P42212]. The test can be described thus: ITC.
Another test addresses IS_hairpin. Briefly: ITC.
A further test deals with IS_helix. Briefly: ITC. On the technique in general: In ITC the heat of successive injections is recorded.
In test [2] the target is WT_IS domain (residue 83–137 in full-length PAK1 sequence) (UniProt Q13153). The test can be described thus: ITC.
The target in test [3] is alternative design: trunc-WT_IS-2 domain (PAK1 residues 87–137) inserted into CFP with glycine-serine linkers [GFP: P42212]. Briefly: ITC.
The target of test [4] is mero-CFP-PAcKer [GFP: P42212]. Briefly: other fluorescence titration.

A word on the Kd: it is the constant that tells how readily two partners part at equilibrium. A higher Kd goes with lower affinity.

Regarding “PAK1 kinase domain (K298R mutant), residues 250–545 (from UniProt Q13153 250-545) (domain or fragment)”, the Kd worked out at 15 µM in test [1]; 0.4 µM with CFP-PAcKer [GFP: P42212]; 2.6 µM in the test with IS_hairpin; 1.6 µM with IS_helix; 4 µM in test [2]; 1.65 µM in test [3]. Also, the Kd in test [4] was found to be 0.6 µM.

As to “PAK1^V127E/S144E (full-length PAK1 stabilized in the 'open' state, kinase dead K298R) (from UniProt Q13153 1-545) (enzyme)”, the Kd with CFP-PAcKer [GFP: P42212] was found to be 3.3 µM.
